Where “and” joins values, the source holds several entries; their conditions need not be identical. Equal values may be shown once.

The conditions of this series: Salmonella typhimurium (strain LT2 / SGSC1412 / ATCC 700720); pH 7.8; 25 °C; Urea; CD; Potassium phosphate 10 mM; transition: 3; whole UniProt chain shown.

B1: Tryptophan synthase alpha chain wild type, P00929 (protein)
chain: MERYENLFAQLNDRREGAFVPFVTLGDPGIEQSLKIIDTLIDAGADALELGVPFSDPLADGPTIQNANLRAFAAGVTPAQCFEMLALIREKHPTIPIGLLMYANLVFNNGIDAFYARCEQVGVDSVLVADVPVEESAPFRQAALRHNIAPIFICPPNADDDLLRQVASYGRGYTYLLSRSGVTGAENRGALPLHHLIEKLKEYHAAPALQGFGISSPEQVSAAVRAGAAGAISGSAIVKIIEKNLASPKQMLAELRSFVSAMKAASRA
For B1, the denaturant m value is 2.7 kcal/mol/M and 1.6 kcal/mol/M; the “denaturant midpoint (higher = more stable)” value was 2.75 M and 3.63 M; the unfolding free energy was 7.4 kcal/mol and 5.8 kcal/mol.
